Measured values from the supplement of paper PMC7125110.
± gives the standard error. Variants at the floor of the assay were thinned out.

B1: glmS ribozyme (parent)
chain: AUAAAAGCGCCAGAACUACAGAAAUGUAGUUGACGAGGAGGAGGUUUAUCGAAUUUUCGGCGGAUGCCUCCAAA

Tests used:
Conditions in all cases: with glucosamine-6-phosphate
[1] = variants of: B1; test: self-cleavage kobs at 40 uM GlcN6P; higher = faster cleavage; RNA array
How it was run: (§1)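 Barcoded ribozyme variants, transcribed in situ by E. coli RNA polymerase on sequenced MiSeq chips, were followed via a hybridised Cy3 probe at 37 °C. Glucosamine-6-phosphate ranged from 40 μM to 10 mM in HEPES/KCl/Mg(OAc)2 buffer. kobs came from decay fits to per-tile medians, and kcat and KM from weighted Michaelis–Menten fits.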

[2] = variants of: B1; test: self-cleavage kobs at 160 uM GlcN6P; higher = faster cleavage; RNA array
How it was run: as §1

[3] = variants of: B1; test: self-cleavage kobs at 640 uM GlcN6P; higher = faster cleavage; RNA array
How it was run: as §1

[4] = variants of: B1; test: self-cleavage kobs at 2500 uM GlcN6P; higher = faster cleavage; RNA array
How it was run: as §1

[5] = variants of: B1; test: self-cleavage kobs at 10000 uM GlcN6P; higher = faster cleavage; RNA array
How it was run: as §1

AUAAAAACGCCAGAACUACAGAAAUGUAGUUGACGAGGAGGAGGUUUAUCGUAUUUUCGGCGGGUGCCUCAAAA [G7A A52U A64G C71A]
self-cleavage kobs at 40 uM GlcN6P [1]: < 1e-05 s⁻¹
self-cleavage kobs at 160 uM GlcN6P [2]: < 1e-05 s⁻¹
self-cleavage kobs at 640 uM GlcN6P [3]: < 1e-05 s⁻¹
self-cleavage kobs at 2500 uM GlcN6P [4]: < 1e-05 s⁻¹

AUAAAACCGCGAGAACUACAGAAAUGUAGUUGACGAGGAGGAGGUUUAUCAAAUUUUCGGCGGAUGCCUCCAAA [G7C C11G G51A]
self-cleavage kobs at 40 uM GlcN6P [1]: < 1e-05 s⁻¹
self-cleavage kobs at 10000 uM GlcN6P [5]: < 1e-05 s⁻¹

AUAAAAGCGCAAGACCUACAGAAAUGUAGUUGACGAGGAGGAGGUUUAUGGAAUUUUCGGCGGAUGCCUCCAAA [C11A A15C C50G]
self-cleavage kobs at 40 uM GlcN6P [1]: 0.000118 ± 3.3e-05 s⁻¹
self-cleavage kobs at 160 uM GlcN6P [2]: 0.000386 ± 0.00017 s⁻¹
self-cleavage kobs at 640 uM GlcN6P [3]: 0.000113 ± 3.6e-05 s⁻¹
self-cleavage kobs at 2500 uM GlcN6P [4]: 7.75e-05 ± 3.1e-05 s⁻¹
self-cleavage kobs at 10000 uM GlcN6P [5]: 4.96e-05 ± 1.5e-05 s⁻¹

AUAAAAGCGCCAGAACUACAGAAAUGUAGUUGACGAGGAGGAGGUUAAUCUAAUUUUCGGCGGAUGCCUCCAAA [U47A G51U]
self-cleavage kobs at 40 uM GlcN6P [1]: < 1e-05 s⁻¹
self-cleavage kobs at 160 uM GlcN6P [2]: < 1e-05 s⁻¹
self-cleavage kobs at 10000 uM GlcN6P [5]: < 1e-05 s⁻¹

AUAAAAGCGCCAGAACUACAGAAAUGUAGUUGACGAGGAGGAGCUUUAUCGAAUUUUCGGCGGAUGCCUGCAAA [G44C C70G]
self-cleavage kobs at 40 uM GlcN6P [1]: < 1e-05 s⁻¹
self-cleavage kobs at 160 uM GlcN6P [2]: < 1e-05 s⁻¹
self-cleavage kobs at 640 uM GlcN6P [3]: < 1e-05 s⁻¹
self-cleavage kobs at 2500 uM GlcN6P [4]: < 1e-05 s⁻¹
self-cleavage kobs at 10000 uM GlcN6P [5]: < 1e-05 s⁻¹

AUAAAAGCGCCAGCACUACAGAAAUGUAGUUGUCGAGGAGGAGGUUUAUCGAUUUGUCGGCGGAUGCCUCCAAA [A14C A33U A53U U56G]
self-cleavage kobs at 40 uM GlcN6P [1]: < 1e-05 s⁻¹
self-cleavage kobs at 10000 uM GlcN6P [5]: 2.92e-05 ± 1.4e-05 s⁻¹

AUAAAAGCGCCCGAACUACAGAAUUGUAGUUGACGAGGAGGAGGUUUAUCGCAUUUUCGGCGGAUGACUCCAAA [A12C A24U A52C C67A]
self-cleavage kobs at 40 uM GlcN6P [1]: < 1e-05 s⁻¹

AUAAAAGCGCCAGAACUACAGAAAUGUAGAUGACGAGGAGGAGAUUUAUCGAAUUUUCGGCGGAUGCCUCCAAA [U30A G44A]
self-cleavage kobs at 40 uM GlcN6P [1]: < 1e-05 s⁻¹
self-cleavage kobs at 160 uM GlcN6P [2]: < 1e-05 s⁻¹
self-cleavage kobs at 10000 uM GlcN6P [5]: 4.03e-05 ± 8.7e-06 s⁻¹

AUAAAAGCGCCAGAACUACAGAAAUGUAGUUUACGAGGAGGAGGUUUAUCGAAUUAUCGGGGGAUGACUCCAAA [G32U U56A C61G C67A]
self-cleavage kobs at 40 uM GlcN6P [1]: 7.99e-05 ± 3e-05 s⁻¹

AUAAAAGCGCCAGGACUACAGAAAUGUAGUUGACGAGGAGGAGGGUUAUCGAAUUUUCGGCGGUUGCCUCCAAA [A14G U45G A64U]
self-cleavage kobs at 40 uM GlcN6P [1]: < 1e-05 s⁻¹

AUAAAAGCGCCAGAACUACAGAAAUGUAGUUGACGAGGAGGAGGUGUCUCGAAUUUUCGGCGGAUGCCUCCAAA [U46G A48C]
self-cleavage kobs at 40 uM GlcN6P [1]: < 1e-05 s⁻¹
self-cleavage kobs at 160 uM GlcN6P [2]: < 1e-05 s⁻¹
self-cleavage kobs at 640 uM GlcN6P [3]: < 1e-05 s⁻¹

AUAAAAGCGCCAGAACUACAGAAAUGUAGUUGACGAGGAGGACGUUUAUCGAAUUAUCGGGGGAUGCCUCCAAA [G43C U56A C61G]
self-cleavage kobs at 40 uM GlcN6P [1]: < 1e-05 s⁻¹
self-cleavage kobs at 10000 uM GlcN6P [5]: < 1e-05 s⁻¹

AUAAAAGCGCCAGAACUACAGAAAUGUAGGUGACGAGGAGGAAGUUUAUCGAAUUUUCGGCGGAUGCCUCCAAA [U30G G43A]
self-cleavage kobs at 40 uM GlcN6P [1]: < 1e-05 s⁻¹
self-cleavage kobs at 160 uM GlcN6P [2]: < 1e-05 s⁻¹

AUAAAAGCGCUAGAACUACAGAAAUGUAGUUGACGAGGAGGAGGUUUAUCGAAUUUUGGGCGGAUGUCGCCAAA [C11U C58G C67U U69G]
self-cleavage kobs at 40 uM GlcN6P [1]: 3.48e-05 ± 1.2e-05 s⁻¹
self-cleavage kobs at 10000 uM GlcN6P [5]: 6.72e-05 ± 1.3e-05 s⁻¹

AUAAAAGCGCCAUAACUACAGAAAUGUAUUUGACGUGGAGGAGGUUUAUCGAAUUUGCGGCGGAUGCCUCCAAA [G13U G29U A36U U57G]
self-cleavage kobs at 40 uM GlcN6P [1]: < 1e-05 s⁻¹
self-cleavage kobs at 10000 uM GlcN6P [5]: < 1e-05 s⁻¹
